According to patent US20230341395A1:

Target: Recombinant SARS-CoV-2 Spike protein antigen (Z03501, Genscript) (SARS-CoV-2) (UniProt P0DTC2)

Substance: Monoclonal antibody against the SARS-CoV-2 Spike protein (A02038, Genscript)
- Kd: 2.39 nM
- koff: 0.000603 s⁻¹
- kon: 252000 M⁻¹ s⁻¹
